{"source": "patent US12578329B2", "about": "“Reagent kit containing polypeptide for use in detection of intermolecular interactions” (SHIMADZU CORPORATION, priority 2021, dated 2026)", "molecules": {"B1": {"name": "picALuc30: SEQ ID NO: 51; amino acids 54 to 175 of ALuc30 wt, without the N terminus and C terminus; 13 kDa luciferase (protein)", "chain": "KLPGKKLPLEVLKELEANAQKAGCTRGCLICLSHIKCTAKMKKWLPGRCESWEGDKETGQGGIGEAIVDIPEIPGFKELAPMEQFIAQVDLCADCTTGCLKGLANVKCSALLKKWLPSRCAG", "modifications": "picALuc30", "notes": "amino acids 54 to 175 of ALuc30 wt, without the N terminus and C terminus; 13 kDa luciferase"}, "B2": {"name": "TurboLuc™: known luciferase, about 16 kDa; SEQ ID NO: 74 (protein, listed as Metrisia longa)", "chain": "MEAEAERGKLPGKKLPLEVLIELEANARKAGCTRGCLICLSKIKCTAKMKKYIPGRCADYGGDKKTGQAGIVGAIVDIPEISGFKEMEPMEQFIAQVDRCADCTTGCLKGLANVKCSDLLKKWLPGRCATFADKIQSEVDNIKGLAGD"}, "B3": {"name": "NanoLuc®: known luciferase, about 19 kDa; SEQ ID NO: 73 (protein)", "chain": "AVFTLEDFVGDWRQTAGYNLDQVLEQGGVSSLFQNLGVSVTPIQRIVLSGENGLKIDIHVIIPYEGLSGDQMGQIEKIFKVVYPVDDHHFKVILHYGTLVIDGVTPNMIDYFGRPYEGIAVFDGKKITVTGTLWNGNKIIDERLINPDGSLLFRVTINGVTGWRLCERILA", "modifications": "oplophorus gracilirostris"}}, "key": {"[1]": {"assay": "Measurement of specific activity (enzyme concentrations adjusted by Western blot signal)", "type": "biochemical", "experimental": "The specific activities of NanoLuc®, ALuc30 wt, and picALuc30 were measured, with their enzyme concentrations adjusted based on the Western blot signal intensity obtained in Experiment 6."}, "[2]": {"assay": "Emission value of secretion-expressed luciferase in COS-7 culture medium, coelenterazine substrate", "type": "biochemical", "conditions": "for emission values (rank order): Experiment 5", "experimental": "(§1) • (1) COS-7 cells derived from the kidney of African green monkey were inoculated in a 24-well dish, and on the next day, subconfluency was attained. • (2) 25 μL of Opti-MEM (Thermo Fisher Scientific™), 400 ng (2 μL) of the plasmid, and 1 μL of P3000 (Invitrogen™, Waltham, MA) were mixed. • (3) 25 μL of Opti-MEM and 1 μL of lipofectoamine 3000 (Invitrogen™) were mixed. • (4) (2) and (3) were mixed together, followed by incubation at room temperature for 5 minutes. • (5) The mixture was added to the medium of (1). • (6) 500 μL of Dulbecco's modified Eagle's medium was added, followed by culturing the cells at 37° C. for 1 day and then collecting the medium. The medium contained secretion-expressed luciferase. • (7) To 100 μL of the medium, coelenterazine was added as a substrate at a final concentration of 5 μM, followed by measuring the emission value by using Enspire multi-mode plate reader (PerkinElmer™, Waltham, MA).\nBy the same manner as in Experiment 2, the emission value was measured.\nThe emission value was measured in the same manner as in Experiment 2 except that the final concentration of coelenterazine was changed to 0.5 μM. […] The emission value was measured in the same manner as in Experiment 2 except that the final concentration of coelenterazine was changed to 5 μM."}, "[3]": {"assay": "Emission value of secretion-expressed luciferase in COS-7 culture medium, furimazine substrate", "type": "biochemical", "conditions": "Experiment 5; furimazine in the concentration recommended by the manufacturer", "experimental": "as §1\nThe emission value was measured in the same manner as in Experiment 2 except that furimazine, which was available from Promega™ as a NanoLuc® substrate, was used as a substrate in the concentration recommended by the manufacturer."}, "[4]": {"assay": "Thermal stability of picALuc30 purified from Escherichia coli", "type": "physicochemical", "conditions": "expressed in Escherichia coli"}, "[5]": {"assay": "Emission value of secretion-expressed luciferase in COS-7 culture medium, coelenterazine h substrate", "type": "biochemical", "conditions": "Experiment 5", "experimental": "as §1\nThe emission value was measured in the same manner as in Experiment 2 except that coelenterazine h was used as a substrate in a final concentration of 5 μM. […] The emission value was measured in the same manner as in Experiment 2 except that coelenterazine h was used as a substrate in a final concentration of 25 μM."}, "[6]": {"assay": "Thermal stability of secretion-expressed picALuc30 (heat treatment, then emission value)", "type": "physicochemical", "experimental": "In the same manner as in Experiment 2, the plasmid was transfected into COS-7 cells and the medium was collected. The culture supernatant containing picALuc30 was incubated for 10 minutes at room temperature (25° C.), 40° C., 50° C., 60° C., 70° C., 80° C., or 90° C., and then the emission value was measured. […] (FIG. 22), indicating a sufficient level of practical utility."}, "[7]": {"assay": "Stability of protein terminus: Western blot detection of Flag-tag and His-tag in culture supernatant", "conditions": "secretion-expressed luciferase in COS-7 culture supernatant; Western blotting", "from_the_text": "In the same manner as in Experiment 2, the plasmid was transfected into COS-7 cells and culture supernatant was collected. Flag-tag added to the N terminus of each secretion-expressed luciferase and His-tag added to the C terminus thereof were detected by Western blotting (SDS-PAGE, Mini-PROTEAN TGX Gel StainFree 4-15% (Bio-Rad™, Hercules, CA)) (FIG. 17). The antibodies used were Anti 6×Histidine, Monoclonal Antibody (9C11), Peroxidase Conjugated (manufactured by FUJIFILM Wako Pure Chemical Corporation, 1:1000) and Monoclonal ANTI-FLAG (R) M2-Peroxidase (HRP) antibody produced in mouse, clone M2 (manufactured by Sigma-Aldrich™, St. Louis, MO, 1/1000), respectively, and detection was performed with Amesham Imager 680 (Cytiva™, Marlborough, MA)."}, "[8]": {"assay": "Specific activity of picALuc30 expressed in Escherichia coli versus secretion-expressed by COS-7 cells", "type": "biochemical", "conditions": "concentrations adjusted by Western blotting", "experimental": "• (1) A DNA sequence coding for picALuc30 was inserted into a pET32 vector to prepare a plasmid. Transformation was carried out into Escherichia coli SHuffle T7 express lysY (New England Biolab). • (2) Escherichia coli from (1) was inoculated into an LB plate (containing […] of ampicillin). • (3) Next day, one colony was taken out, and cultured with shaking overnight at 30° C. in a test tube containing 2 mL of LB medium (containing […] of ampicillin). • (4) 1 mL of (3) was added to 100 mL of LB medium (containing […] of ampicillin), followed by shaking culture at 30° C. in a 500-mL flask until the absorbance OD600 reached about 0.4. • (5) When the absorbance OD600 reached about 0.4, 40 μL of 1-M isopropyl-β-thiogalactopyranoside was added, followed by overnight culture at 16° C. • (6) The bacterial cells were collected, followed by purification of the protein using HisTALON Buffer Set and TALON Metal Affinity Resin (both from Takara Bio Inc.). From 100 mL of the medium, 1.7 mg of picALuc30 was obtained."}, "[9]": {"conditions": "GLuc: when secretion expressed from cells; cited from earlier work"}}, "note": "“Also recorded” adds a separate entry of the source."}
{"molecule": "B1", "values": [{"measurement": "maximum emission value", "setting": "[1]; Experiment 7", "result": "same maximum emission value as NanoLuc®"}, {"measurement": "specific activity", "setting": "[1]; coelenterazine or coelenterazine h as substrate", "result": "the same"}, {"measurement": "emission value", "setting": "[2]; Experiment 2, coelenterazine 5 μM, medium of transfected COS-7 cells", "result": "the same as or higher than that of ALuc30 wt"}, {"measurement": "emission values (rank order)", "setting": "[2]; coelenterazine 0.5 μM", "result": "NanoLuc®>>picALuc30>TurboLuc™>ALuc30 wt>GLuc"}, {"measurement": "emission values (rank order)", "setting": "[2]; coelenterazine 5 μM", "result": "ALuc30 wt=picALuc30>NanoLuc®>TurboLuc™>GLuc"}, {"measurement": "emission value compared with NanoLuc and TurboLuc", "setting": "[2]; secretion-expressed, substrate coelenterazine or coelenterazine h in a high concentration (summary of Experiment 5)", "result": "equal to or higher than NanoLuc® and TurboLuc™"}, {"measurement": "emission value", "setting": "[3]", "result": "low as compared to NanoLuc® and TurboLuc™"}, {"measurement": "activity after heat treatment", "setting": "[4]; 10-minute incubation at 60° C.", "result": "lost little activity"}, {"measurement": "activity remained", "setting": "[4]; 10-minute incubation at 70° C.", "result": "≥ 90", "unit": "%"}, {"measurement": "activity remained", "setting": "[4]; 10-minute incubation at 80° C.", "result": "≥ 80", "unit": "%"}, {"measurement": "emission values (rank order)", "setting": "[5]; coelenterazine h 5 μM", "result": "TurboLuc™=ALuc30 wt>>NanoLuc®>picALuc30>GLuc"}, {"measurement": "emission values (rank order)", "setting": "[5]; coelenterazine h 25 μM", "result": "picALuc30>>NanoLuc®=TurboLuc™=ALuc30 wt>>GLuc"}, {"measurement": "activity remained", "setting": "[6]; 10-minute incubation at 50° C.", "result": "≥ 80", "unit": "%"}, {"measurement": "activity remained", "setting": "[6]; 10-minute incubation at 60° C.", "result": "≥ 80", "unit": "%"}, {"measurement": "activity remained", "setting": "[6]; 10-minute incubation at 70° C.", "result": "≥ 50", "unit": "%"}, {"measurement": "stability of protein termini (Flag-tag and His-tag detection)", "setting": "[7]", "result": "both termini remaining"}, {"measurement": "specific activity, secretion expressed by COS-7 cells versus prepared in Escherichia coli", "setting": "[8]", "result": "approximately the same"}]}
{"molecule": "B2", "values": [{"measurement": "emission values (rank order)", "setting": "[2]; coelenterazine 0.5 μM", "result": "NanoLuc®>>picALuc30>TurboLuc™>ALuc30 wt>GLuc"}, {"measurement": "emission values (rank order)", "setting": "[2]; coelenterazine 5 μM", "result": "ALuc30 wt=picALuc30>NanoLuc®>TurboLuc™>GLuc"}, {"measurement": "emission value", "setting": "[3]", "result": "high emission values"}, {"measurement": "emission value (known)", "setting": "[9]", "result": "relatively high"}, {"measurement": "emission values (rank order)", "setting": "[5]; coelenterazine h 5 μM", "result": "TurboLuc™=ALuc30 wt>>NanoLuc®>picALuc30>GLuc"}, {"measurement": "emission values (rank order)", "setting": "[5]; coelenterazine h 25 μM", "result": "picALuc30>>NanoLuc®=TurboLuc™=ALuc30 wt>>GLuc"}, {"measurement": "stability of protein termini (Flag-tag and His-tag detection)", "setting": "[7]", "result": "N terminus was lost"}]}
{"molecule": "B3", "values": [{"measurement": "emission values (rank order)", "setting": "[2]; coelenterazine 0.5 μM", "result": "NanoLuc®>>picALuc30>TurboLuc™>ALuc30 wt>GLuc"}, {"measurement": "emission values (rank order)", "setting": "[2]; coelenterazine 5 μM", "result": "ALuc30 wt=picALuc30>NanoLuc®>TurboLuc™>GLuc"}, {"measurement": "emission value", "setting": "[3]", "result": "high emission values; also recorded: the same as when coelenterazine or coelenterazine h was used"}, {"measurement": "emission value (known)", "setting": "[9]", "result": "very high"}, {"measurement": "emission values (rank order)", "setting": "[5]; coelenterazine h 5 μM", "result": "TurboLuc™=ALuc30 wt>>NanoLuc®>picALuc30>GLuc"}, {"measurement": "emission values (rank order)", "setting": "[5]; coelenterazine h 25 μM", "result": "picALuc30>>NanoLuc®=TurboLuc™=ALuc30 wt>>GLuc"}]}
